{
  "source": "IntAct's records for PubMed 9461438",
  "parents": {"B1": {"name": "WD repeat-containing protein slp1 (Schizosaccharomyces pombe (strain ATCC 38366 / 972)), P78972 (parent)", "chain": "MEIAGNSSTISPTFSTPTKKRNLVFPNSPITPLHQQALLGRNGRSSKRCSPKSSFIRNSPKIDVVNTDWSIPLCGSPRNKSRPASRSDRFIPSRPNTANAFVNSISSDVPFDYSESVAEACGFDLNTRVLAFKLDAPEAKKPVDLRTQHNRPQRPVVTPAKRRFNTTPERVLDAPGIIDDYYLNLLDWSNLNVVAVALERNVYVWNADSGSVSALAETDESTYVASVKWSHDGSFLSVGLGNGLVDIYDVESQTKLRTMAGHQARVGCLSWNRHVLSSGSRSGAIHHHDVRIANHQIGTLQGHSSEVCGLAWRSDGLQLASGGNDNVVQIWDARSSIPKFTKTNHNAAVKAVAWCPWQSNLLATGGGTMDKQIHFWNAATGARVNTVDAGSQVTSLIWSPHSKEIMSTHGFPDNNLSIWSYSSSGLTKQVDIPAHDTRVLYSALSPDGRILSTAASDENLKFWRVYDGDHVKRPIPITKTPSSSITIR", "partner": "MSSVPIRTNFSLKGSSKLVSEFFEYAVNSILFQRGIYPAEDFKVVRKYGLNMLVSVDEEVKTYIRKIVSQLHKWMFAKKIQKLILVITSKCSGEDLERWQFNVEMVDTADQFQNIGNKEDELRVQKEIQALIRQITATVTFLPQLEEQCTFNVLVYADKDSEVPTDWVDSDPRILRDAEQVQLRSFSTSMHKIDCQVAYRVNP"}},
  "data": [
    {"variants_of": "B1", "settings": "with mad2_schpo mad2, O14417", "values": [
      {"variant": "A131P;F132Y", "effect of a mutation on the interaction": "disrupting interaction"}
    ]}
  ]
}
